Biological target: serum proteins
Assay: 90% serum, 30 kDa ultrafiltration, HPLC

Row | Binder | Protein binding (%)
1 | GFCWHVCHYRNSVRVCYRRCN [SEQ ID NO: 219] | 99%
2 | GFCYKVCVYRNGVRSCYRRCN [SEQ ID NO: 206] | 86%
3 | GFCWNVCVYRNGVRVCHRRCH [SEQ ID NO: 282] | 82%
4 | GFCFYVCVKRNGVRVCHRRCN [SEQ ID NO: 137] | 86%
5 | GFCWNVCVYRNGVRVCYRRCN [SEQ ID NO: 11] | 73%
6 | GFCWNVCVYRNGVRYCHRRCN [SEQ ID NO: 254] | 77%
7 | HFCWNVCVYRNGVRVCHRRCN [SEQ ID NO: 98] | 77%
8 | GFCWNVCVYRGGVRVCHRRCN [SEQ ID NO: 231] | 66%
9 | GFCWNICVYRNGVRVCHRRCN [SEQ ID NO: 262] | 88%
10 | GFCWNVCVYRNYVRVCHRRCN [SEQ ID NO: 229] | 91%
11 | GFCGRVCVRRNGVRVCYRRCN [SEQ ID NO: 172] | 88%
12 | GFCWNVCVYRNGVRVCHRRCW [SEQ ID NO: 291] | 99%
13 | GFCWNVCVYRNGYRVCHRRCN [SEQ ID NO: 242] | 83%
14 | GFCWNVCVYRNGVRRCHRRCN [SEQ ID NO: 252] | 76%
15 | GFCWRVCVYRNGVRKCHRRCN [SEQ ID NO: 315] | 93%
16 | GFCWNVCVKRNGVRVCHRRCN [SEQ ID NO: 305] | 76%
17 | GFCGHVCVYRNGVRVCYRRCS [SEQ ID NO: 144] | 68%
18 | GFCWNVCVYRNGVRVCHRRCK [SEQ ID NO: 284] | 72%
19 | GFCARVCVKRNGVRVCYRRCN [SEQ ID NO: 125] | 90%

Row | Binder | Protein binding (%)
20 | GFCYRVCVYRNGVRVCSRRCN [SEQ ID NO: 211] | 96%
21 | GFCWYSCVYRNGVRVCYRRCN [SEQ ID NO: 19] | 89%
22 | GFCWNVCFYRNGVRVCHRRCN [SEQ ID NO: 272] | 74%
23 | MFCWNVCVYRNGVRVCHRRCN [SEQ ID NO: 101] | 81%
24 | GFCWNVCVYRRGVRVCHRRCN [SEQ ID NO: 234] | 86%
25 | GFCAKVCVYRNGVRSCYRRCN [SEQ ID NO: 120] | 69%
26 | GFCWNVCVYRNGHRVCHRRCN [SEQ ID NO: 237] | 40%
27 | GFCWNVCVYRNKVRVCHRRCN [SEQ ID NO: 227] | 80%
28 | GFCWNVCVYRNGVRICHRRCN [SEQ ID NO: 248] | 58%
29 | GFCWNVCVYRNGVRNCHRRCN [SEQ ID NO: 251] | 71%
30 | GFCWNVCVYRNGVRLCHRRCN [SEQ ID NO: 249] | 83%
31 | GFCWNVCVYRAGVRVCHRRCN [SEQ ID NO: 230] | 71%
32 | GFCWNVCVYRNGVRVCHRRCR [SEQ ID NO: 289] | 83%
33 | GFCWYWCVYRNGVRVCYRRCN [SEQ ID NO: 20] | 99%
34 | GFCWNVCVYRNGRRVCHRRCN [SEQ ID NO: 239] | 65%
35 | GFCWYGCVYRNGVRVCYRRCN [SEQ ID NO: 15] | 96%
36 | GFCWKVCVYRNGVRVCYRRCN [SEQ ID NO: 10] | 64%
37 | GFCWNLCVYRNGVRVCHRRCN [SEQ ID NO: 263] | 80%
38 | GFCWNACVKRNGVRVCYRRCN [SEQ ID NO: 258] | 89%

The remaining lines, values ahead:

Row | Protein binding (%) | Binder
39 | 95% | GFCTYVCVKRNGVRKCYRRCN [SEQ ID NO: 195]
40 | 85% | GFCWNWCVYRNGVRVCHRRCN [SEQ ID NO: 267]
41 | 94% | GFCWNVCVRRNGVRVCHRRCN [SEQ ID NO: 308]
42 | 74% | GFCWNVCVARNGVRVCHRRCN [SEQ ID NO: 299]
43 | 85% | GFCWNVCVYRNGVRFCHRRCN [SEQ ID NO: 245]
44 | 85% | GFCWNVCVYRHGVRVCHRRCN [SEQ ID NO: 232]
45 | 66% | GFCWNVCVYRNGVRVCHRRCG [SEQ ID NO: 281]
46 | 89% | GFCYRVCVYRNGVRTCYRRCN [SEQ ID NO: 209]
47 | 43% | GFCWNVCVHRNGVRVCHRRCN [SEQ ID NO: 303]
48 | 78% | GFCWNVCVYRQGVRVCHRRCN [SEQ ID NO: 233]
49 | 84% | GFCGRVCVYRNGVRTCYRRCN [SEQ ID NO: 171]
50 | 79% | GFCWNVCVYRNGVRGCHRRCN [SEQ ID NO: 246]
51 | 94% | GFCWNVCVYRNGVRWCHRRCN [SEQ ID NO: 253]
52 | 83% | GFCGHVCVYRNGVRRCYRRCN [SEQ ID NO: 155]
53 | 64% | GFCWNVCVYRNGARVCHRRCN [SEQ ID NO: 235]
54 | 95% | GFCWHVCVYRNGARSCYRRCN [SEQ ID NO: 213]
55 | 98% | GFCWRVCVYRNGARKCYRRCN [SEQ ID NO: 313]
56 | 81% | GFCARVCVYRNGVRSCYRRCN [SEQ ID NO: 122]
57 | 80% | GFCWNVCLYRNGVRVCHRRCN [SEQ ID NO: 275]
58 | 87% | GFCGRVCVYRNGVRRCYRRCN [SEQ ID NO: 170]
59 | 89% | GFCYRVCVYRNGVRVCHRRCN [SEQ ID NO: 210]
60 | 84% | GFCWNFCVYRNGVRVCHRRCN [SEQ ID NO: 260]
61 | 99% | GFCWHVCARRNGVRVCYRRCN [SEQ ID NO: 218]
62 | 86% | GFCWNVCVYRNRVRVCHRRCN [SEQ ID NO: 228]
63 | 91% | GFCYNVCVYRNGVRRCYRRCN [SEQ ID NO: 207]
64 | 78% | KFCWNVCVYRNGVRVCHRRCN [SEQ ID NO: 100]

Reference: patent US20150031601A1
